The text below walks through data of IntAct's records for PubMed 12730685.

The target in this experiment is mgn_human MAGOH (UniProt P61326).

With “RNA-binding protein 8A (Homo sapiens) (from UniProt Q9Y5S9) L118R”, the “effect of a mutation on the interaction” value was “decreasing interaction”.
